For orientation: Kd means the constant that tells how readily two partners part at equilibrium.

Ends that are not written are not given here. * marks the point of attachment. FITC = O=C1OC2(c3ccc(O)cc3Oc3cc(O)ccc32)c2ccc(NC(=S)*)cc21

These results are taken from paper PMC9929924, “Phosphorylation of the receptor protein Pex5p modulates import of proteins into peroxisomes” (Biological Chemistry, 2022).

One assay concerns Pex5p^2D cells. The experiment in a line: Fluorescence microscopy, peroxisomal import of GFP-tagged proteins in Pex5p^2D-expressing cells. In kind it is cell-based, S. cerevisiae. Set-up: key to import phenotype category: showed a reduced peroxisomal import and constitute category 1; category 2 characterized by no peroxisomal import; without a noticeable effect on import in Pex5p^2D cells (category 3). Particulars: GFP-tagged protein, Pex5p^2D-expressing cells; Pex3p-mCherry marker; SD medium, 2% glucose; assessed manually. The source says:
Query strains were constructed on the basis of an automated mating compatible strain. The query strains contained a peroxisomal marker (Pex3p-mCherry::HIS), a deletion of PEX5 (pex5Δ::NAT) and a plasmid expressing WT or mutant PEX5 (PEX5^WT, PEX5^2D or PEX5^2A). Using an automated mating method ([Cohen and Schuldiner 2011]; [Tong and Boone 2006]), the query strains were crossed with a NOP1pr-N′-GFP-peroxi library ([Dahan et al. 2017]). The NOP1pr-N′-GFP-peroxisomal library is a collection of ∼90 strains containing all the known peroxisomal proteins together with potential peroxisomal proteins and controls, genomically tagged with GFP at their N-terminus and expressed under the generic constitutive SpNOP1 promoter. To perform the manipulations in high-density format we used a RoToR bench top colony arrayer (Singer Instruments). In short: mating was performed on rich medium plates, and selection for diploid cells was performed on SD(MSG)-HIS-URA plates containing Geneticin (200 μg ml^−1) and Nourseothricin (200 μg ml^−1). Sporulation was induced by transferring cells to nitrogen starvation media plates for 7 days. Haploid cells containing the desired mutations were selected by transferring cells to SD-URA-HIS-LYS-ARG-LEU plates containing Geneticin and Nourseothricin (same concentrations as above), alongside the toxic amino acid derivatives Canavanine and Thialysine (Sigma-Aldrich) to select against remaining diploids and select for spores with an α mating type. A similar method was used to generate control, pex5Δ, and pex8Δ strains expressing GFP-Mdh3p (Supplementary Figure 4D), in which the query strain contained a peroxisomal marker (Pex3p-mCherry::NAT) and URA3::GFP-Mdh3p. This query strain was crossed with three strains from the mini peroxisomal deletion library ([Gabay-Maskit et al. 2020]): a control (no deletion), pex5Δ, and pex8Δ strain, all of which contain KAN (Geneticin) resistance.
The yeast collections were visualized using an automated microscopy setup as described previously ([Breker et al. 2013]). In short: cells were transferred from agar plates into 384-well polystyrene plates (Greiner) for growth in liquid media using the RoToR arrayer robot. Liquid cultures were grown in a LiCONiC incubator, overnight at 30 °C in SD-URA-HIS medium. A JANUS liquid handler (PerkinElmer) connected to the incubator was used to dilute the strains to an OD600 of ∼0.2 into plates containing SD medium (6.7 g l^−1 yeast nitrogen base and 2% glucose) supplemented with complete amino acids. Plates were incubated at 30 °C for 4 h. The cultures in the plates were then transferred by the liquid handler into glass-bottom 384-well microscope plates (Matrical Bioscience) coated with Concanavalin A (Sigma-Aldrich). After 20 min, cells were washed three times with SD-Riboflavin complete medium to remove non-adherent cells and to obtain a cell monolayer. The plates were then transferred to the ScanR automated inverted fluorescent microscope system (Olympus) using a robotic swap arm (Hamilton). Images of cells in the 384-well plates were recorded in the same liquid as the washing step at 24 °C using a 60× air lens (NA 0.9) and with an ORCA-ER charge-coupled device camera (Hamamatsu). Images were acquired in two channels: GFP (excitation filter 490/20 nm, emission filter 535/50 nm) and mCherry (excitation filter 572/35 nm, emission filter 632/60 nm). All images were taken at a single focal plane. The same protocol was used to visualize fluorescence signals in GFP-Mdh3p-expressing control, pex5Δ, and pex8Δ strains (Supplementary Figure 4D).

In another assay the test system is pex8Δ cells. Particulars: ref Rehling et al. 2000; cited from earlier work. The source says: Among the proteins with reduced peroxisomal import in Pex5p^2D cells (category 1) is Pex8p, an essential component of the import machinery for peroxisomal matrix proteins and required for the biogenesis of functional peroxisomes ([Agne et al. 2003]; [Rehling et al. 2000]), which may raise the question if the reduced import of most PTS1 proteins in Pex5p^2D cells is a consequence of decreased peroxisomal Pex8p levels.

In another assay the test system is yeast peroxisomes. Particulars: under both glucose and oleate condition; ref Rosenthal et al. 2020; cited from earlier work. An excerpt: We classified PTS1-proteins into three different categories according to the observed import phenotypes. […] In contrast, peroxisomal NADP-dependent isocitrate dehydrogenase (Idp3p; Figure 4C) and malate synthase 1 (Mls1p; Figure 4D) belong to category 2 characterized by no peroxisomal import (Supplementary Fi ...

Assay [1] deals with T1, Pex5p wildtype, recombinant His6-tagged (HisPex5p) (S. cerevisiae, UniProt P35056 1-612).
T1 construct: Pex5p, PTS1 receptor of Saccharomyces cerevisiae, UniProtKB P35056, full length; No cleavage of the His tag is described; the native MS mass of the monomer is printed as 71.459 kDa; also called Pex5p^WT; source: E. coli BL21 RIL (DE3), purified (Ni-NTA, MonoQ anion exchange, SEC)
T1 sequence (looked up): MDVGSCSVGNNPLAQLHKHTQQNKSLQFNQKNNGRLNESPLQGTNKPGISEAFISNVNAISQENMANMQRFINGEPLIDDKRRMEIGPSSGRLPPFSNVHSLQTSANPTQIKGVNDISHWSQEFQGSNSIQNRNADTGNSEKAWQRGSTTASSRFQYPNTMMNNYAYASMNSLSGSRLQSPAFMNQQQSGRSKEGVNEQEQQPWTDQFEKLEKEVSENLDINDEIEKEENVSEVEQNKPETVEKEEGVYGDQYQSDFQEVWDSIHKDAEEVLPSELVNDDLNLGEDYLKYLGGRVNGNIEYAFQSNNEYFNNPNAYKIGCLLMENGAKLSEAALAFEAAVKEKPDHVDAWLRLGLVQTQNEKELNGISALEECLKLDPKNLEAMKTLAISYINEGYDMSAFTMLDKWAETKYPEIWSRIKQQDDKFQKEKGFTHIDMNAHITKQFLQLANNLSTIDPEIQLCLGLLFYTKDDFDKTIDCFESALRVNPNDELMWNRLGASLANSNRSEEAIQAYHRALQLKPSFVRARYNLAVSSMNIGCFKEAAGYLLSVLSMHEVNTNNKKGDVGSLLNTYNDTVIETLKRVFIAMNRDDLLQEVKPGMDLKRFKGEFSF
Description: fluorescence polarisation; fluorescence anisotropy; 10 nM FITC-labelled peptide, serial dilutions of Pex5p variant 1.5 nM to 6.6 µM; 50 mM HEPES pH 7.5, 150 mM NaCl; one-site binding-saturation fit. Particulars: both partners purified. For orientation: In fluorescence polarisation assays a small probe gives low polarisation when free and higher when bound to something large.

In assay [2] the target is T2, Pex5p-S507/523D, recombinant His6-tagged phospho-mimicking mutant (S. cerevisiae, UniProt P35056 1-612, S507D | S523D).
T2 construct: Pex5p, PTS1 receptor of Saccharomyces cerevisiae, UniProtKB P35056, full length, with S507D and S523D; No cleavage of the His tag is described; the native MS mass of the monomer is printed as 71.515 kDa; also called Pex5p^2D; Pex5p-S507D/523D; source: E. coli BL21 RIL (DE3), purified (Ni-NTA, MonoQ anion exchange, SEC)
T2 sequence (looked up): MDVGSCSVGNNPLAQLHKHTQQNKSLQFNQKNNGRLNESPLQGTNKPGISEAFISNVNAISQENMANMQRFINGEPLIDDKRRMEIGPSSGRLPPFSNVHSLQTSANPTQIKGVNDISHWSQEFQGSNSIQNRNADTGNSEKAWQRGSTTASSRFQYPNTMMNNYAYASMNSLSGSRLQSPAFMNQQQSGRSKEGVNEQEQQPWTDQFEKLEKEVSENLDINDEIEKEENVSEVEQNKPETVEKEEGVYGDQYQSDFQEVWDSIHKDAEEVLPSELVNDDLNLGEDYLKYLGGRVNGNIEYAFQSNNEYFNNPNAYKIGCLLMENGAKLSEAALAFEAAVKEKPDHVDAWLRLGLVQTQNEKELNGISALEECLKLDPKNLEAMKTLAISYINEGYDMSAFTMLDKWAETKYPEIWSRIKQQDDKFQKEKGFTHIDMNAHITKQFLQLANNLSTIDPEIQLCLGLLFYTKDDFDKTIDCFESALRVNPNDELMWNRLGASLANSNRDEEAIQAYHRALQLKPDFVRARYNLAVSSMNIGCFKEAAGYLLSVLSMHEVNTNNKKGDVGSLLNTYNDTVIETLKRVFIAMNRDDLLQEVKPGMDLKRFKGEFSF
The assay is described as above. Particulars: both partners purified.

On to “Pcs60p: peroxisomal oxalyl-CoA synthetase, PTS1-protein”, for which, in the assay with Pex5p^2D cells, the import phenotype category entry is “category 1”. Moreover, in the assay with pex8Δ cells, the subcellular distribution entry is on record as “mislocalization”.
Take “Lys1p: saccharopine dehydrogenase ({FITC}-YARVKRSSRL)”: the import phenotype category entry with Pex5p^2D cells is “category 3”. In addition, in the assay on yeast peroxisomes, the “targeting priority to peroxisomes” value is recorded as “high targeting priority”.
As to “Cat2p: carnitine acetyl-CoA transferase ({FITC}-YNENKRKAKL)”, the import phenotype category result with Pex5p^2D cells is “category 3”. Further, the “targeting priority to peroxisomes” value in the assay on yeast peroxisomes is given as “high targeting priority”.

B1: Fox3p: 3-ketoacyl-CoA thiolase, PTS2 import pathway (protein, UniProt P27796 16-417, looked up)
3-ketoacyl-CoA thiolase, …: AMGKGESKRKNSLLEKRPEDVVIVAANRSAIGKGFKGAFKDVNTDYLLYNFLNEFIGRFPEPLRADLNLIEEVACGNVLNVGAGATEHRAACLASGIPYSTPFVALNRQCSSGLTAVNDIANKIKVGQIDIGLALGVESMTNNYKNVNPLGMISSEELQKNREAKKCLIPMGITNENVAANFKISRKDQDEFAANSYQKAYKAKNEGLFEDEILPIKLPDGSICQSDEGPRPNVTAESLSSIRPAFIKDRGTTTAGNASQVSDGVAGVLLARRSVANQLNLPVLGRYIDFQTVGVPPEIMGVGPAYAIPKVLEATGLQVQDIDIFEINEAFAAQALYCIHKLGIDLNKVNPRGGAIALGHPLGCTGARQVATILRELKKDQIGVVSMCIGTGMGAAAIFIKE
Turning to B1, the subcellular distribution entry in the assay on pex8Δ cells is recorded as “mislocalization”.

B2: Cat2p nonapeptide, FITC-YNENKRKAKL (peptide)
peptide: {FITC}-YNENKRKAKL
notes: tyrosine added to the peptide amino-terminus for concentration measurements; the nine carboxy-terminal residues of Cat2p (carnitine acetyl-CoA transferase), S. cerevisiae; An extra N-terminal tyrosine stands before the natural stretch; also called Cat2p peptide; source: synthetic peptide (GenScript)
In the case of B2, the Kd was 116 nM in assay [1] and 896 nM in assay [2].

B3: Lys1p nonapeptide, FITC-YARVKRSSRL (peptide)
peptide: {FITC}-YARVKRSSRL
notes: tyrosine added to the peptide amino-terminus for concentration measurements; the nine carboxy-terminal residues of Lys1p (saccharopine dehydrogenase), S. cerevisiae; An extra N-terminal tyrosine stands before the natural stretch; also called Lys1p peptide; source: synthetic peptide (GenScript)
Turning to B3, the Kd was 88.8 nM in assay [1] and 3690 nM in assay [2].

B4: Cta1p: protein mislocalized to the cytosol in pex8Δ cells in a previous study (protein, UniProt P15202 2-515, looked up)
Peroxisomal catalase A: SKLGQEKNEVNYSDVREDRVVTNSTGNPINEPFVTQRIGEHGPLLLQDYNLIDSLAHFNRENIPQRNPHAHGSGAFGYFEVTDDITDICGSAMFSKIGKRTKCLTRFSTVGGDKGSADTVRDPRGFATKFYTEEGNLDWVYNNTPVFFIRDPSKFPHFIHTQKRNPQTNLRDADMFWDFLTTPENQVAIHQVMILFSDRGTPANYRSMHGYSGHTYKWSNKNGDWHYVQVHIKTDQGIKNLTIEEATKIAGSNPDYCQQDLFEAIQNGNYPSWTVYIQTMTERDAKKLPFSVFDLTKVWPQGQFPLRRVGKIVLNENPLNFFAQVEQAAFAPSTTVPYQEASADPVLQARLFSYADAHRYRLGPNFHQIPVNCPYASKFFNPAIRDGPMNVNGNFGSEPTYLANDKSYTYIQQDRPIQQHQEVWNGPAIPYHWATSPGDVDFVQARNLYRVLGKQPGQQKNLAYNIGIHVEGACPQIQQRVYDMFARVDKGLSEAIKKVAEAKHASELSSNSKF
Consider B4, for which, in the assay with pex8Δ cells, the subcellular distribution entry is listed as “mislocalization”.

B5: Mdh3p: peroxisomal malate dehydrogenase (protein, UniProt P32419 2-343, looked up)
Malate dehydrogenase, …: VKVAILGASGGVGQPLSLLLKLSPYVSELALYDIRAAEGIGKDLSHINTNSSCVGYDKDSIENTLSNAQVVLIPAGVPRKPGLTRDDLFKMNAGIVKSLVTAVGKFAPNARILVISNPVNSLVPIAVETLKKMGKFKPGNVMGVTNLDLVRAETFLVDYLMLKNPKIGQEQDKTTMHRKVTVIGGHSGETIIPIITDKSLVFQLDKQYEHFIHRVQFGGDEIVKAKQGAGSATLSMAFAGAKFAEEVLRSFHNEKPETESLSAFVYLPGLKNGKKAQQLVGDNSIEYFSLPIVLRNGSVVSIDTSVLEKLSPREEQLVNTAVKELRKNIEKGKSFILDSSKL
Consider B5, for which the import phenotype category result in the assay on Pex5p^2D cells was “category 3”. The “targeting priority to peroxisomes” value with yeast peroxisomes is recorded as “high targeting priority”.
